Results: the supplement of paper PMC9170038

Test system: MS2 coat protein
Experiment: apparent KD of MS2 coat protein; designed switch direction (-1 OFF switch, 1 ON switch): -1; higher = weaker reporter binding
Outline: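 The apparent KD reported per design is the median over clusters of curve fits to normalised cluster fluorescence. The RNA switches were transcribed on Illumina chips by stalled E. coli RNA polymerase. SNAP-549-labelled MS2 coat protein was titrated from 0.7 or 1.5 nM, doubling up to 3 µM, in Tris-HCl pH 7.5 buffer containing KCl, MgCl2, BSA, DTT, tRNA and Tween-20, with no input, 200 uM small-molecule ligand, or an oligonucleotide input.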

[1] = Eterna round: R95, input ligand: FMN 200 uM
[2] = Eterna round: R95, input ligand: microRNA oligo, concentration not stated
[3] = Eterna round: R95, input ligand: none
[4] = input ligand: microRNA oligo, concentration not stated

Sequence	apparent KD of MS2 coat protein [1]	apparent KD of MS2 coat protein [2]	apparent KD of MS2 coat protein [3]	apparent KD of MS2 coat protein (input ligand: FMN 200 uM)	apparent KD of MS2 coat protein [4]	apparent KD of MS2 coat protein (input ligand: none)
AAUCCACAUGAGGAUCACCCAUGUGAGGAUAUGAUACUAUGUACUUCGGUACAUAGUAUCAGAAGGCACAUGAA [Ex1-3: 50] (puzzle: Exclusion 1)	118 nM	64.2 nM	71.6 nM	–	–	–
AGUUGGCGAGGAUAUACAUGAGGAUCACCCAUGUGAAAUCGAGAAAAAAUAGGGAAAAGUAGAAGGCGCAGACA [Ruby 63] (Eterna round: R96, puzzle: Exclusion 3)	–	–	–	28.2 nM	24.3 nM	28.7 nM
CAUGUCUGAGGAUAUCGUUUUUUGUACAUGAGGAUCACCCAUGUCCUAUUUUUUAUAUUACGAGAAGGCAGUGGAU [JR_E5_Sub091] (Eterna round: R96, puzzle: Exclusion 5)	–	–	–	27.9 nM	27.8 nM	39.2 nM
UCGCUGCGAGGAUAUACAUGAGGAUCACCCAUGUACGGGUCCGGGUCUUUGUCUAUUGGUAGAAGGCGCAGUGA [JL Laongeedie mod 9] (puzzle: Exclusion 3)	–	51.5 nM	–	–	–	–
UUUCCCGUUCAGGCUGGAAACAUGAGGAUCACCCAUGUUCAAUCGGUUCUGUUAGCUGCUCGUCUUUUACACUUUCC [Eternabot (L1) Solution 39] (Eterna round: R97, puzzle: Sensor, turn-off variant 1)	–	–	–	20.5 nM	–	20.3 nM
CCUCUACAUGAGGAUCACCCAUGUGAGGAUAUCUCGGAGCAACCACUUAAGGCGCUCCAGAGAAGGCACGUGUA [Erralaqu] (puzzle: Exclusion 1)	–	19.5 nM	–	–	–	–
AAAACUCACGUAGGAUAUCAUUCCUUAAGGUAGUGAGAAGGACGUGACUACAUGUCCUAAAACAUGAGGAUCACCCAUGUAGGC [Riis] (Eterna round: R96, puzzle: Exclusion NG 1)	–	–	–	–	24.2 nM	–
AGCAUGAGAGAGGAUAUGGUCGCCGCAACAUGACCAGAAGGCUCAACAUGAGGAUCACCCAUGUGGCCCGGCUC [Eternabot (L1) Solution 33] (Eterna round: R97, puzzle: Exclusion 6)	–	–	–	33.2 nM	–	19.5 nM
AGUAGGUCUACCUUGGUGGAUCUGCAUUUAUGCAAGUGUACAUGAGGAUCACCCAUGUCCUCAUUUGCUCGUCUUAU [JL turnoff v2 99.26] (puzzle: Sensor v3, turn-off variant 2)	95 nM	432 nM	103 nM	–	–	–
UUAUAUAAUGUGAGGAUAUGCUGGUCGAGAGAUCAGCAGAAGGCACAUGAGGAUCACCCAUGUAGUAAAUUUUA [Mat - Exclusion 4 - JL Mod - D14] (puzzle: Brourd's mod of Exclusion 4)	–	19.8 nM	–	–	–	–
UCUGGUCGAGGAUAUACAUUCGUGCUUCGGCACGUAAGAUCACAUGAGGAUCACCCAUGUAGAAGGCGACCAGA [E2/5-A3] (Eterna round: R97, puzzle: Exclusion 2)	–	–	–	1050 nM	–	98.8 nM
CUUUCGUCUGUGGGUGGUGACAUGAGGAUCACCCAUGUUUUGCUCGUCUUGUGCCGGGCCCGGCGCCCGGGCCCGGC [-38.7, -62.6, A 8%] (Eterna round: R97, puzzle: Sensor, turn-off variant 1)	–	–	–	861 nM	–	992 nM
GAGAGAGACAUAGGAUAUUCACCCACACAUGAGGAAGAAGGAUGUAGACAUGAGGAUCACCCAUGUGGAUCACCCAUGUUUGUG [All by luck] (Eterna round: R96, puzzle: Exclusion NG 1)	–	–	–	22 nM	12.1 nM	24.7 nM
CAUCCAGCUUCCCUUCAAAACAUGAGGAUCACCCAUGUUUUUGUUUUUACAAGCUUUUUGCUUUUUGCUCGUCUUGU [A Humble Attempt... Again] (puzzle: Sensor v3, turn-off variant 1)	20.5 nM	16 nM	21.5 nM	–	–	–
UUUGAUUGCACAGGAUAUUGUCAUUUGAGUUGUCAAGAAGGGUGUACAUGAGGAUCACCCAUGUAAUGGUUGCCUCGCUGACUU [JR_ExcNG1_Sub008] (Eterna round: R96, puzzle: Exclusion NG 1)	–	–	–	–	77.1 nM	–
AAAUCCGCUGAGGAUAUCAUGACUGAGAGGUCAUGAGAAGGCGGUACAUGAGGAUCACCCAUGUCUAUGGGCAA [Ex-6 Malc#28] (puzzle: Exclusion 6)	–	386 nM	–	–	–	–
AUCAGCUCGUGAGGAUAUGCACAUGAGGAUCACCCAUGUAAGAUCAAGCUGCUUCGGCAGCAAGUGCAGAAGGUACGAGCUGAU [ENG2/9-C2] (Eterna round: R96, puzzle: Exclusion NG 2)	–	–	–	206 nM	128 nM	234 nM
CAAGCUAUUGUAGCAACUAACAUGAGGAUCACCCAUGUAGGCAUAACUUACCUAGCUCGUUUAUACAAAUCAAUUGU [Eternabot (L2) Solution 11] (Eterna round: R97, puzzle: Sensor, turn-off variant 1)	–	–	–	13.1 nM	–	17.6 nM
UUUACAAGCUAUAGAUCCCACAUGAGGAUCACCCAUGUUGCUGCCAACGGUAGCUUUUUAUGGUUUGCUCGUCUUAU [JL TOV1 3.35] (Eterna round: R97, puzzle: Sensor, turn-off variant 1)	–	–	–	443 nM	–	1860 nM
ACUGUGACGUAGGAUAUCUCCUAAUUGCGCCGGAGAGAAGGACGUACAUGAGGAUCACCCAUGUGCCCUCGGAA [EX6 B.13] (Eterna round: R97, puzzle: Exclusion 6)	–	–	–	300 nM	–	56.4 nM
AAAAAUUACAUGAGGAUCACCCAUGUAGAGUGGGAAGAGAGAUAGGAUAUGAUGUGAGAAUCAUAUCAGAAGGAUCGAGACUCA [AK ExNG3-2.1] (Eterna round: R96, puzzle: Exclusion NG 3)	–	–	–	129 nM	126 nM	119 nM
ACAAGCUUUUAGUUCGUCUUAUACACUCCUAAUAAGAAAACAUGAGGAUCACCCAUGUAAGAAAUAAGAACUCAUGU [Sesor Array 2 - Jieux - Sensor v3, turn-off variant 2] (Eterna round: R96, puzzle: Sensor v3, turn-off variant 2)	–	–	–	186 nM	297 nM	143 nM
GGGUGCAGGCUGAGGUCCUACAUGAGGAUCACCCAUGUGGUCCGGUGGCGUGGGUCGCCGGACUUGGCUCGUCUUGU [salish99_S_TOV1_R5_013] (Eterna round: R97, puzzle: Sensor, turn-off variant 1)	–	–	–	39.2 nM	–	45.8 nM
